Our source for the Kd values is paper PMC6561178, “Caulobacter crescentus Hfq structure reveals a conserved mechanism of RNA annealing regulation”.

Series [1] addresses T1, Cc78 (Caulobacter crescentus NA1000, UniProt B8GW92 1-78, del79-82).
T1 sequence: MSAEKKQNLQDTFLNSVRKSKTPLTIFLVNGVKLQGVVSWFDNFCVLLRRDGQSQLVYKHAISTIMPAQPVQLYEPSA
In words: EMSA; Hill n 1.4; EMSA: 34 mM Tris-HCl pH 7.5, 50 mM NaCl, 50 mM KCl, 50 mM NH4Cl, 11.4 mM EDTA, 12% glycerol, 30 C, 30 min, ~1 nM 32P-RNA, Kd in Hfq6; anisotropy: 10 mM Tris-HCl. As to conditions: protein: recombinant; tags: untagged after self-cleaved intein; chain copies: 6; label: 32P; stem-loops. Background: Mobility shift assays separate free from complexed probe on a gel.

Series [2] addresses T2, Ec Hfq (Hfq102) (Escherichia coli, UniProt P0A6X3 1-102). In words: EMSA; Hill n 1.0; Tris-glycine gel; EMSA: 34 mM Tris-HCl pH 7.5, 50 mM NaCl, 50 mM KCl, 50 mM NH4Cl, 11.4 mM EDTA, 12% glycerol, 30 C, 30 min, ~1 nM 32P-RNA, Kd in Hfq6; anisotropy: 10 mM Tris-HCl. As to conditions: protein: recombinant; tags: untagged; chain copies: 6; label: 32P; stem-loops.
The target in series [3] is T3, Ec65 (Escherichia coli, UniProt P0A6X3 1-65, del66-102). In words: EMSA; Hill n 1.6; EMSA: 34 mM Tris-HCl pH 7.5, 50 mM NaCl, 50 mM KCl, 50 mM NH4Cl, 11.4 mM EDTA, 12% glycerol, 30 C, 30 min, ~1 nM 32P-RNA, Kd in Hfq6; anisotropy: 10 mM Tris-HCl. As to conditions: protein: recombinant; tags: untagged; chain copies: 6; label: 32P; stem-loops.
For series [4], the target named is T4, EcCc Hfq (Escherichia coli / Caulobacter …, UniProt P0A6X3 1-67+B8GW92:71-82, internal_change). The description is as above. As to conditions: protein: recombinant; tags: untagged; chain copies: 6; label: 32P; stem-loops.
Series [5] addresses T3, Ec65. In words: EMSA; Hill n 1.0; EMSA: 34 mM Tris-HCl pH 7.5, 50 mM NaCl, 50 mM KCl, 50 mM NH4Cl, 11.4 mM EDTA, 12% glycerol, 30 C, 30 min, ~1 nM 32P-RNA, Kd in Hfq6; anisotropy: 10 mM Tris-HCl. As to conditions: protein: recombinant; tags: untagged; chain copies: 6; label: 32P; stem-loops.
In series [6] the target is T2, Ec Hfq (Hfq102). Briefly: EMSA; Hill n 8.2; Tris-glycine gel; EMSA: 34 mM Tris-HCl pH 7.5, 50 mM NaCl, 50 mM KCl, 50 mM NH4Cl, 11.4 mM EDTA, 12% glycerol, 30 C, 30 min, ~1 nM 32P-RNA, Kd in Hfq6; anisotropy: 10 mM Tris-HCl. As to conditions: protein: recombinant; tags: untagged; chain copies: 6; label: 32P; stem-loops.
The target in series [7] is T1, Cc78. In words: EMSA; Hill n 1.3; EMSA: 34 mM Tris-HCl pH 7.5, 50 mM NaCl, 50 mM KCl, 50 mM NH4Cl, 11.4 mM EDTA, 12% glycerol, 30 C, 30 min, ~1 nM 32P-RNA, Kd in Hfq6; anisotropy: 10 mM Tris-HCl. As to conditions: protein: recombinant; tags: untagged after self-cleaved intein; chain copies: 6; label: 32P; stem-loops.
Series [8] has as its target T4, EcCc Hfq. In words: EMSA; Hill n 5.1; EMSA: 34 mM Tris-HCl pH 7.5, 50 mM NaCl, 50 mM KCl, 50 mM NH4Cl, 11.4 mM EDTA, 12% glycerol, 30 C, 30 min, ~1 nM 32P-RNA, Kd in Hfq6; anisotropy: 10 mM Tris-HCl. As to conditions: protein: recombinant; tags: untagged; chain copies: 6; label: 32P; stem-loops.

B1: ChvR (structured_RNA)
RNA: GGCGGGGCCUACAUGUCGCGCAAGUCUCCGGAGGGCCAUUCCGAGGCGGGGCCCGCUCCAGCGUCCUCAUUGGAGCGGGCGUCU
A word on the Kd: it is the concentration at which binding is half-saturated. On to B1, for which the Kd in series [1] was found to be 0.256 ± 0.025 µM; in series [2], 0.0172 ± 0.001 µM; in series [3] it was 0.0202 ± 0.0003 µM; in series [4], 0.228 ± 0.084 µM.

B2: R157 (structured_RNA)
RNA: GGUGAGGCGCCGAGCGCCUCUGCCCUUCCUGGGCGUUUCCUCCCUAUGACUUUGUAGCCCGGUCUUCAUGGCCGGGCUUUCUUUUU
For the molecule B2, the Kd came to 0.0063 ± 0.0011 µM in series [5], 0.0143 ± 0.0001 µM in series [6], 0.349 ± 0.007 µM in series [7] and 0.0557 ± 0.0027 µM in series [8].
